# Results taken from patent publication US20040203101A1 (Human Genome Sciences, published 2004).
# B1: human BAIT (Brain-Associated Inhibitor of Tissue-Type Plasminogen Activator), mature protein expressed in baculovirus/Sf9 cells and purified (other)
# chain: ATFPEEAIADLSVNMYNRLRATGEDENILFSPLSIALAMGMMELGAQGSTQKEIRHSMGYDSLKNGEEFSFLKEFSNMVTAKESQYVMKIANSLFVQNGFHVNEEFLQMMKKYFNAAVNHVDFSQNVAVANYINKWVENNTNNLVKDLVSPRDFDAATYLALINAVYFKGNWKSQFRPENTRTFSFTKDDESEVQIPMMYQQGEFYYGEFSDGSNEAGGIYQVLEIPYEGDEISMMLVLSRQEVPLATLEPLVKAQLVEEWANSVKKQKVEVYLPRFTVEQEIDLKDVLKALGITEIFIKDANLTGLSDNKEIFLSKAIHKSFLEVNEEGSEAAAVSGMIAISRMAVLYPQVIVDHPFFFLIRNRRTGTILFMGRVMHPETMNTSGHDFEEL
# modifications: glycosylated (positions not stated)
# notes: The preparation has mixed N-termini (also called BAIT protein); neural serpin
# Key:
# [1] = target: T1, human single-chain tPA (human, UniProt P00750 36-562); assay: kinetic constants for the interaction of BAIT with proteinases; method not described
# T1 construct: also called sctPA
# [2] = target: T2, bovine beta trypsin (bovine, UniProt P00760 24-246); assay: as above
# T2 construct: also called β-trypsin
# [3] = target: thrombin (Homo sapiens (Human), UniProt P00734 328-363; P00734 364-622); assay: as above
# [4] = target: human low molecular weight uPA (human, UniProt P00749 156-431); assay: as above
# [5] = target: T3, human two-chain tPA (human, UniProt P00750 36-310; P00750 311-562); assay: as above
# T3 construct: Two-chain (cleaved) form; also called tctPA
# [6] = target: T4, human high molecular weight uPA (human, UniProt P00749 21-431); assay: as above
# T4 construct: also called uPA-H
# [7] = target: plasmin (Homo sapiens (Human), UniProt P00747 97-580; P00747 581-810, Two chains joined by disulfide bonds after cleavage of plasminogen at Arg580-Val581 (precursor count).); assay: as above
# [8] = target: T2, bovine beta trypsin; assay: cell-based or functional assay
# [9] = target: tissue-type plasminogen activator, tPA (Genentech) (human, UniProt P00750 36-562); assay: cell-based or functional assay
# [10] = target: urokinase-type plasminogen activator, uPA (Serono) (UniProt P00749 21-431, limits assumed); assay: cell-based or functional assay
# [11] = target: T3, human two-chain tPA; assay: comparison of rates of inhibition; reference PAI-1 with tPA
# [12] = target: T3, human two-chain tPA; assay: comparison of rates of inhibition; reference PN-1 with tPA
# [13] = target: T3, human two-chain tPA; assay: comparison of rates of inhibition from Table I; reference BAIT with uPA
# T3 sequence (P00750 36-310 limits assumed, chain 1 of 2): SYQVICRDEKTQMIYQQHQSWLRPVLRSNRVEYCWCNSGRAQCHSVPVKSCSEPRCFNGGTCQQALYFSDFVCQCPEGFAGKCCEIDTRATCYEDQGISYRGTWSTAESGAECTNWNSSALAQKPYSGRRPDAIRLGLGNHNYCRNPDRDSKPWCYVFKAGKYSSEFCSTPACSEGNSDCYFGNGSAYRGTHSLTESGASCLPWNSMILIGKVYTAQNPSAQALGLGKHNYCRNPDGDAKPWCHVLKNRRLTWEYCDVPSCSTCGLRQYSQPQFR
# T3 sequence (P00750 311-562 limits assumed, chain 2 of 2): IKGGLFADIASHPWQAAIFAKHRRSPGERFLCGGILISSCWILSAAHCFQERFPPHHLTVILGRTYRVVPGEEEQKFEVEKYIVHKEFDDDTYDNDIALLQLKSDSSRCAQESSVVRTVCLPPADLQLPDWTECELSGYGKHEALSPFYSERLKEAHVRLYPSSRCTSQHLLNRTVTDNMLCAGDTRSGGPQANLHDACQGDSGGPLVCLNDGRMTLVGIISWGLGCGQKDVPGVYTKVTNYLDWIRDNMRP
# plasmin, sequence (P00747 97-580 limits assumed, form in doubt, chain 1 of 2): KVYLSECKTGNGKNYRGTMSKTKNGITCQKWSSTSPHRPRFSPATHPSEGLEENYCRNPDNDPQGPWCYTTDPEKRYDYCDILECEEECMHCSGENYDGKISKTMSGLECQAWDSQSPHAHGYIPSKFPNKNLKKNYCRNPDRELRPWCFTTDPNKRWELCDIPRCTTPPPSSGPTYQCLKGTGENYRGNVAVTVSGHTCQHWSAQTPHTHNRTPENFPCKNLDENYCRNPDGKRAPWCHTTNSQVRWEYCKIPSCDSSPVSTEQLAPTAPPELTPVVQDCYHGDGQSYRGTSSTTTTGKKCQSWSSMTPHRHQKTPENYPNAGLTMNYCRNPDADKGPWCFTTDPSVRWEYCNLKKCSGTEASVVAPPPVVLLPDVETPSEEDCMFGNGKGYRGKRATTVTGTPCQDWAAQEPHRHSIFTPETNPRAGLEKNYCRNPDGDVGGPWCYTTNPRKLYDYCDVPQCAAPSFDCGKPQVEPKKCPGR
# plasmin, sequence (P00747 581-810 limits assumed, form in doubt, chain 2 of 2): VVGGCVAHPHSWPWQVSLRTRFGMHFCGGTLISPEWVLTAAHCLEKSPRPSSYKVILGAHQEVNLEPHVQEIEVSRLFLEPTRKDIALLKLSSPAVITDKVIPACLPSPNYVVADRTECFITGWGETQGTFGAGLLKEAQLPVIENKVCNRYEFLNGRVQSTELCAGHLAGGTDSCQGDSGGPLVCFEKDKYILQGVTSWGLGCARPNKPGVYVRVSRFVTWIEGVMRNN
# T2 sequence (P00760 24-246 limits assumed): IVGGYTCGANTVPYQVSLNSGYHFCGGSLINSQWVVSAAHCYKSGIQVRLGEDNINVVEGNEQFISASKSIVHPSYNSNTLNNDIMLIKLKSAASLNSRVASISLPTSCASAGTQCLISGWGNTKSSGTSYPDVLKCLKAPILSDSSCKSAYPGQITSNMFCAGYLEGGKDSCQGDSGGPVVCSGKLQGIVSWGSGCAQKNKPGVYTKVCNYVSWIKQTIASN
# T1 sequence (P00750 36-562 limits assumed): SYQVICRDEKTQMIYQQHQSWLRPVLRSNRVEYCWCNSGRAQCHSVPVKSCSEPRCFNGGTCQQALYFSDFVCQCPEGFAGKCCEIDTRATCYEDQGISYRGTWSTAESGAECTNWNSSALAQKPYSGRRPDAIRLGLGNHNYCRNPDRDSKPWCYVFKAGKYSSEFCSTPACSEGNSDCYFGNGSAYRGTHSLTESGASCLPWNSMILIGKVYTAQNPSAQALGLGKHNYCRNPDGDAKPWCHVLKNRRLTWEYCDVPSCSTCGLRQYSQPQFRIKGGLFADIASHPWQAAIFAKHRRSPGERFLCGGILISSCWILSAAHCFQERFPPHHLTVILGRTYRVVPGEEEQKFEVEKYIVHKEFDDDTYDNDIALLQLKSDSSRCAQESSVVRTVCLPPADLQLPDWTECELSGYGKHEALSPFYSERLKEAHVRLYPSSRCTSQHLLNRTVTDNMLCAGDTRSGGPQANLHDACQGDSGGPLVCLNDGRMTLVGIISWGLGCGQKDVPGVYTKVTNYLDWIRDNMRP
# tissue-type plasminogen activator, tPA (Genentech), sequence (P00750 36-562 limits assumed): as above
binder,measurement,setting,value
B1,K,[1],2.1 µM
same,k,[1],0.17 s⁻¹
same,ki,[1],80000 M⁻¹ s⁻¹
same,K,[2],0.16 µM
same,k,[2],0.0096 s⁻¹
same,ki,[2],59000 M⁻¹ s⁻¹
same,K,[3],0.64 µM
same,k,[3],0.000131 s⁻¹
same,ki,[3],210 M⁻¹ s⁻¹
same,K,[4],1.4 µM
same,k,[4],0.013 s⁻¹
same,ki,[4],9200 M⁻¹ s⁻¹
same,K,[5],0.12 µM
same,k,[5],0.078 s⁻¹
same,ki,[5],620000 M⁻¹ s⁻¹
same,K,[6],0.2 µM
same,k,[6],0.005 s⁻¹
same,ki,[6],25000 M⁻¹ s⁻¹
same,K,[7],0.15 µM
same,k,[7],5.2e-05 s⁻¹
same,ki,[7],360 M⁻¹ s⁻¹
same,"half-maximal inhibitory concentration (IC50) of proteolytic activity, single step chromogenic assay",[8],700 nM
same,"half-maximal inhibitory concentration (IC50) of proteolytic activity, single step chromogenic assay",[9],200 nM
same,"half-maximal inhibitory concentration (IC50) of proteolytic activity, single step chromogenic assay",[10],1000 nM
same,fold slower reaction with tPA than PAI-1,[11],~30 fold
same,fold faster reaction with tPA than PN-1,[12],~20 fold
same,fold faster rate of inhibition of tPA than of uPA,[13],~25 fold
